From the supplement of paper PMC7877785 come the findings set out here.

± gives the uncertainty stated by the source.

The nature of this data set: self-splicing fitness, log relative to wild type (ln ratio); higher = more splicing; Tetrahymena group I intron in knt gene, E. coli kanamycin selection, DiMSum; sequences stand for … in CUCUCU…GGAGGGAAAAGUUAUCAGGCAUGCACCUGGUAGCUAGUCUUUAAACCAAUAGAUUGCAUCGGUUUAAAAGGCAAGACCGUCAAAUUGCGGGAAAGGGGUCAACAGCCGUUCAGUACCAAGUCUCAGGGGAAACUUUGAGAUGGCCUUGCAAAGGGUAUGGUAAUAAGCUGACGGACAUGGUCCUAACCACGCAGCCAAGUCCUAAGUCAACAGAUCUUCUGUUGAUAUGGAUGCAGUUCACAGACUAAAUGUCGGUCGGGGAAGAUGUAUUCUUCUCAUAAGAUAUAGUCGGACCUCUCCUUAAUGGGAGCUAGCGGAUGAAGUGAUGCAACACUGGAGCCGCUGGGAACUAAUUUGUAUGCGAAAGUAUAUUGAUUAGUUUUGGAGUACUCGUGGUCG
The gist of the method: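 Fitness was computed with DiMSum as the error-weighted combination of replicate fold changes, kanamycin versus none, each normalised to wild type. The library randomised all eight intron nucleotides of the P1ex region, with the intron placed in the knt kanamycin-resistance gene on pET-22b(+) in E. coli BL21(DE3). Six replicate transformations were grown overnight at 37°C or 30°C on LB agar with or without 25 μg/mL kanamycin, plus 100 μg/mL carbenicillin, 50 μM IPTG and 0.2% rhamnose. Pooled colonies were amplicon-sequenced on an Illumina HiSeq 2500.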

Turning to CACAAGCAAUAUUACGGCGC, the “self-splicing fitness (ln)” value is, setting by setting: (30 °C) -3.59 ± 0.17; (37 °C) -1.07 ± 0.12. As to CACAAGCAAUAUUACGGGGC, the “self-splicing fitness (ln)” value is -3.54 ± 0.17 (30 °C) and -2.54 ± 0.18 (37 °C). The corresponding values for CACAAGCAAUAUUACGGUGG are -1.99 ± 0.05 and -1.06 ± 0.062. The corresponding values for CACAAGCAAUAUUACGUCCC are -2.13 ± 0.33 and -1.07 ± 0.46. As to CACAAGCAAUAUUACGUCCU, the “self-splicing fitness (ln)” value reads like this: (30 °C) -1.84 ± 0.12; (37 °C) -1.05 ± 0.15. The corresponding values for CACAAGCAAUAUUACGUGUC are -3.86 ± 0.15 and -1.63 ± 0.12. On the same counts, the results for CACAAGCAAUAUUACGUGUU are -3.95 ± 0.12 and -3.28 ± 0.13. For CACAAGCAAUAUUACGUUGG, the “self-splicing fitness (ln)” value by setting is: (30 °C) -2.5 ± 0.091; (37 °C) -1.76 ± 0.099. With CACCAGCAAUAUUACGAAUU, the “self-splicing fitness (ln)” value runs as follows: (30 °C) -3.18 ± 0.15; (37 °C) -2.92 ± 0.17.

As to CACCAGCAAUAUUACGACUC, the “self-splicing fitness (ln)” value reads like this: (30 °C) -3.42 ± 0.21; (37 °C) -1.62 ± 0.18.

Regarding CACCAGCAAUAUUACGAGAG, the “self-splicing fitness (ln)” value (30 °C) was -0.95 ± 0.054 and the “self-splicing fitness (ln)” value (37 °C) is -0.673 ± 0.069. The corresponding values for CACCAGCAAUAUUACGAUGG are -1.58 ± 0.06 and -0.874 ± 0.079. On the same counts, the results for CACCAGCAAUAUUACGCAUC are -2.88 ± 0.13 and -3.35 ± 0.23. On the same counts, the results for CACCAGCAAUAUUACGCGAA are -4.18 ± 0.21 and -2.04 ± 0.12.

Consider CACCAGCAAUAUUACGCGAG, for which the “self-splicing fitness (ln)” value was -0.893 ± 0.057 (30 °C) and -0.594 ± 0.063 (37 °C).

For the sequence CACCAGCAAUAUUACGCGCA, the “self-splicing fitness (ln)” value by setting is: (30 °C) -2.03 ± 0.084; (37 °C) -1.51 ± 0.085. For the sequence CACCAGCAAUAUUACGCUAG, the “self-splicing fitness (ln)” value was -1.49 ± 0.068 (30 °C) and -0.153 ± 0.079 (37 °C). On the same counts, the results for CACCAGCAAUAUUACGGAAC are -4.01 ± 0.17 and -2.06 ± 0.14. CACCAGCAAUAUUACGGGCU: the “self-splicing fitness (ln)” value reads like this: (30 °C) -4.86 ± 0.2; (37 °C) -2.8 ± 0.16. The corresponding values for CACCAGCAAUAUUACGGUGA are -2.61 ± 0.095 and -3.26 ± 0.15. On the same counts, the results for CACCAGCAAUAUUACGGUGC are -3.89 ± 0.21 and -1.81 ± 0.15.

For the sequence CACCAGCAAUAUUACGUAGG, the “self-splicing fitness (ln)” value by setting is: (30 °C) -0.739 ± 0.05; (37 °C) -0.0785 ± 0.074. For the sequence CACCAGCAAUAUUACGUCUU, the “self-splicing fitness (ln)” value (30 °C) was -3.59 ± 0.12 and the “self-splicing fitness (ln)” value (37 °C) is -2.64 ± 0.15. On the same counts, the results for CACCAGCAAUAUUACGUGGC are -3.65 ± 0.17 and -2.98 ± 0.21. On the same counts, the results for CACCAGCAAUAUUACGUGGG are -3.41 ± 0.095 and -3.03 ± 0.12.

Regarding CACGAGCAAUAUUACGAAAA, the “self-splicing fitness (ln)” value (30 °C) is -2.14 ± 0.17 and the “self-splicing fitness (ln)” value (37 °C) was -2.66 ± 0.25. The corresponding values for CACGAGCAAUAUUACGAAAU are -2.18 ± 0.19 and -2.81 ± 0.29. On the same counts, the results for CACGAGCAAUAUUACGAAUG are -2.66 ± 0.11 and -2.17 ± 0.16. The corresponding values for CACGAGCAAUAUUACGACAG are -1.71 ± 0.078 and -0.496 ± 0.095.

On to CACGAGCAAUAUUACGAGAG, for which the “self-splicing fitness (ln)” value reads like this: (30 °C) -3.14 ± 0.15; (37 °C) -2.18 ± 0.18. Take CACGAGCAAUAUUACGCAAU: the “self-splicing fitness (ln)” value (30 °C) is -4.23 ± 0.19 and the “self-splicing fitness (ln)” value (37 °C) is -2.99 ± 0.16.

With CACGAGCAAUAUUACGCCAU, the “self-splicing fitness (ln)” value runs as follows: (30 °C) -2.82 ± 0.27; (37 °C) -2.55 ± 0.33. Turning to CACGAGCAAUAUUACGCUAG, the “self-splicing fitness (ln)” value (37 °C) is -2.4 ± 0.28. As to CACGAGCAAUAUUACGCUCA, the “self-splicing fitness (ln)” value is -2.85 ± 0.45 (30 °C) and -2.42 ± 0.27 (37 °C). Turning to CACGAGCAAUAUUACGGAAG, the “self-splicing fitness (ln)” value was -3.54 ± 0.21 (30 °C) and -2.32 ± 0.2 (37 °C). On the same counts, the results for CACGAGCAAUAUUACGGAGC are -2.87 ± 0.44 and -0.87 ± 0.19.

On to CACGAGCAAUAUUACGGAGG, for which the “self-splicing fitness (ln)” value by setting is: (30 °C) -4.5 ± 0.36; (37 °C) -2.75 ± 0.28. On the same counts, the results for CACGAGCAAUAUUACGGAGU are -4.82 ± 0.32 and -3.69 ± 0.24. The corresponding values for CACGAGCAAUAUUACGGAUG are -3.35 ± 0.16 and -2.47 ± 0.16.

Take CACGAGCAAUAUUACGGCAU: the “self-splicing fitness (ln)” value is -3.23 ± 0.2 (30 °C) and -3.52 ± 0.33 (37 °C). The corresponding values for CACGAGCAAUAUUACGGUUU are -3.79 ± 0.33 and -2.93 ± 0.36. Take CACGAGCAAUAUUACGUACU: the “self-splicing fitness (ln)” value runs as follows: (30 °C) -2.77 ± 0.16; (37 °C) -2.54 ± 0.27. With CACGAGCAAUAUUACGUGCC, under “37 °C”, the “self-splicing fitness (ln)” value is -3.4 ± 0.28. For the sequence CACGAGCAAUAUUACGUUAA, the “self-splicing fitness (ln)” value was -3.25 ± 0.22 (30 °C) and -2.86 ± 0.22 (37 °C). On to CACUAGCAAUAUUACGAAAU, for which the “self-splicing fitness (ln)” value (37 °C) is -1.38 ± 0.4. As to CACUAGCAAUAUUACGAAUU, the “self-splicing fitness (ln)” value is -2.88 ± 0.19 (30 °C) and -2.77 ± 0.23 (37 °C). Turning to CACUAGCAAUAUUACGACGA, the “self-splicing fitness (ln)” value was -2.06 ± 0.16 (30 °C) and -1.16 ± 0.17 (37 °C). CACUAGCAAUAUUACGACGG: the “self-splicing fitness (ln)” value by setting is: (30 °C) -0.0504 ± 0.083; (37 °C) -0.117 ± 0.082. On to CACUAGCAAUAUUACGACUG, for which the “self-splicing fitness (ln)” value was -0.3 ± 0.053 (30 °C) and -0.0818 ± 0.071 (37 °C). The corresponding values for CACUAGCAAUAUUACGACUU are -2.29 ± 0.15 and -0.517 ± 0.12. Take CACUAGCAAUAUUACGAGUA: the “self-splicing fitness (ln)” value is -1.34 ± 0.096 (30 °C) and -0.6 ± 0.076 (37 °C). The corresponding values for CACUAGCAAUAUUACGAUAA are -3.35 ± 0.2 and -1.59 ± 0.15. On the same counts, the results for CACUAGCAAUAUUACGCGGA are -3.19 ± 0.25 and -1.85 ± 0.18. Consider CACUAGCAAUAUUACGGAAA, for which the “self-splicing fitness (ln)” value reads like this: (30 °C) -1.99 ± 0.42; (37 °C) -1.42 ± 0.5. Consider CACUAGCAAUAUUACGGACU, for which the “self-splicing fitness (ln)” value runs as follows: (30 °C) -2.87 ± 0.18; (37 °C) -1.13 ± 0.14. The corresponding values for CACUAGCAAUAUUACGGAUG are -2.42 ± 0.083 and -1.39 ± 0.079.

Consider CACUAGCAAUAUUACGGUCA, for which the “self-splicing fitness (ln)” value (30 °C) was -0.522 ± 0.092 and the “self-splicing fitness (ln)” value (37 °C) is -0.198 ± 0.12.

As for CACUAGCAAUAUUACGUAGC, the “self-splicing fitness (ln)” value (30 °C) was -3.47 ± 0.19 and the “self-splicing fitness (ln)” value (37 °C) was -2.94 ± 0.23. The corresponding values for CACUAGCAAUAUUACGUCAU are -5.15 ± 0.41 and -2.79 ± 0.23. The corresponding values for CACUAGCAAUAUUACGUCCA are -2.87 ± 0.22 and -1.31 ± 0.16.

For the sequence CACUAGCAAUAUUACGUCGU, the “self-splicing fitness (ln)” value is, setting by setting: (30 °C) -3.39 ± 0.11; (37 °C) -1.76 ± 0.094. On the same counts, the results for CACUAGCAAUAUUACGUCUU are -3.77 ± 0.3 and -2.75 ± 0.26.

Consider CACUAGCAAUAUUACGUUGA, for which the “self-splicing fitness (ln)” value is, setting by setting: (30 °C) -3.56 ± 0.2; (37 °C) -2.24 ± 0.16.

For CAGAAGCAAUAUUACGAAAA, the “self-splicing fitness (ln)” value by setting is: (30 °C) -4.31 ± 0.46; (37 °C) -2.65 ± 0.21. CAGAAGCAAUAUUACGAAAG: the “self-splicing fitness (ln)” value is, setting by setting: (30 °C) -1.29 ± 0.11; (37 °C) -0.392 ± 0.12.

CAGAAGCAAUAUUACGAACU: the “self-splicing fitness (ln)” value reads like this: (30 °C) -2.12 ± 0.13; (37 °C) -1.72 ± 0.17. The corresponding values for CAGAAGCAAUAUUACGACAG are -0.805 ± 0.15 and -0.248 ± 0.23.

Consider CAGAAGCAAUAUUACGAGUA, for which the “self-splicing fitness (ln)” value is, setting by setting: (30 °C) -3.2 ± 0.29; (37 °C) -1.66 ± 0.22.

On to CAGAAGCAAUAUUACGAUCC, for which the “self-splicing fitness (ln)” value reads like this: (30 °C) -2.81 ± 0.16; (37 °C) -1.93 ± 0.32. Turning to CAGAAGCAAUAUUACGCAAC, the “self-splicing fitness (ln)” value (37 °C) was -2.39 ± 0.33. Consider CAGAAGCAAUAUUACGCAAU, for which the “self-splicing fitness (ln)” value (30 °C) was -4.46 ± 0.42 and the “self-splicing fitness (ln)” value (37 °C) was -2.79 ± 0.24. On the same counts, the results for CAGAAGCAAUAUUACGCGCG are -0.373 ± 0.17 and 0.0448 ± 0.29. The corresponding values for CAGAAGCAAUAUUACGCGUU are -3.09 ± 0.17 and -3.61 ± 0.29. The corresponding values for CAGAAGCAAUAUUACGGAGU are -3.56 ± 0.28 and -3.14 ± 0.4. Turning to CAGAAGCAAUAUUACGGAUC, the “self-splicing fitness (ln)” value is -1.26 ± 0.11 (30 °C) and -2.62 ± 0.17 (37 °C).

As for CAGAAGCAAUAUUACGGGUG, the “self-splicing fitness (ln)” value is -0.824 ± 0.064 (30 °C) and -0.429 ± 0.08 (37 °C).
